This note sets out measurements from paper PMC5942590.

In general, stoichiometry N refers to the number of molecules, sites or subunits per partner or assembly.

Assay [1] deals with HSV-1 glycoprotein B construct gBΔ71 (residues 72-904) (Herpes Simplex Virus type 1 (HSV-1)) (UniProt P06437). As to the kind of experiment: crystal structure.
Assay [2] shares this target. Kind of assay: crystal structure. This is another data set of the same source.

Where two headings read alike, the source gives them in different places.

For “HSV-1 glycoprotein B construct gBΔ71 (residues 72-904) (from UniProt P06437 72-904) (natural protein)”, the stoichiometry N in assay [1] and in assay [2] was 3 each time.
